Measurements taken from patent publication US20120164142A1.
Ends that are not written are not given here.

What follows are binders tested against T1, purified insulin degrading enzyme (IDE) (UniProt P14735) (assay: cell-based or functional assay).
T1 sequence (looked up): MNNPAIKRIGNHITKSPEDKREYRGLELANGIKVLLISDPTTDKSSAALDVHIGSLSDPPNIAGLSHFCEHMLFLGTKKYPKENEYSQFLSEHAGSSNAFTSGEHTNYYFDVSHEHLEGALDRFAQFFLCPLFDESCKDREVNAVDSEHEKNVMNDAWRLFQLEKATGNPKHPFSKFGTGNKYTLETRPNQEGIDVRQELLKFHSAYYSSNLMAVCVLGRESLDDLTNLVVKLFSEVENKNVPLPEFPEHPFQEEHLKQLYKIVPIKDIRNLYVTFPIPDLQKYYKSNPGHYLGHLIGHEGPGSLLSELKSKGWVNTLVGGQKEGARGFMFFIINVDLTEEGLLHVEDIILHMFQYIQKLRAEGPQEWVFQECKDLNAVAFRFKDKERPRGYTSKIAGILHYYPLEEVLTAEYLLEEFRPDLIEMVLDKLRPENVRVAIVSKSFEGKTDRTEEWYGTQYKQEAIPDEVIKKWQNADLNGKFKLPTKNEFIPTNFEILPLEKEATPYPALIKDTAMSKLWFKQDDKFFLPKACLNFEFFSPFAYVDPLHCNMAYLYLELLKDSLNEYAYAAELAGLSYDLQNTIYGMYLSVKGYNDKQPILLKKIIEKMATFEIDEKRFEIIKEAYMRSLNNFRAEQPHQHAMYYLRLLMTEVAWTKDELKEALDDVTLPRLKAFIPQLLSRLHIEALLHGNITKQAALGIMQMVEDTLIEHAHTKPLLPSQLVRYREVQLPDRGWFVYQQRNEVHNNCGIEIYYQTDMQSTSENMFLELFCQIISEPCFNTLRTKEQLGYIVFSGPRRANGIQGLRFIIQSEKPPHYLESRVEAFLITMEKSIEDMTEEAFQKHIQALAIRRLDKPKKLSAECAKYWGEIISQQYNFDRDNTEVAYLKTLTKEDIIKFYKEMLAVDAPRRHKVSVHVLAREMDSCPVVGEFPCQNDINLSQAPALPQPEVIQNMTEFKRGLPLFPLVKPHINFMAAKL

Row | Binder | reduction of ability to generate cGMP (NPRB cells) after 30 min with purified IDE | reduction of ability to generate cGMP (NPRB cells) after 120 min with purified IDE
1 | GLSKGCFGLKLDRIGSMSGLGC [human CNP22] | 64% | 99%

What follows are binders tested against human natriuretic peptide receptor A (NPR-A) (human) (UniProt P16066) (assay: cell-based or functional assay).
Chain of human natriuretic peptide receptor A (NPR-A) (human) (P16066 33-1061): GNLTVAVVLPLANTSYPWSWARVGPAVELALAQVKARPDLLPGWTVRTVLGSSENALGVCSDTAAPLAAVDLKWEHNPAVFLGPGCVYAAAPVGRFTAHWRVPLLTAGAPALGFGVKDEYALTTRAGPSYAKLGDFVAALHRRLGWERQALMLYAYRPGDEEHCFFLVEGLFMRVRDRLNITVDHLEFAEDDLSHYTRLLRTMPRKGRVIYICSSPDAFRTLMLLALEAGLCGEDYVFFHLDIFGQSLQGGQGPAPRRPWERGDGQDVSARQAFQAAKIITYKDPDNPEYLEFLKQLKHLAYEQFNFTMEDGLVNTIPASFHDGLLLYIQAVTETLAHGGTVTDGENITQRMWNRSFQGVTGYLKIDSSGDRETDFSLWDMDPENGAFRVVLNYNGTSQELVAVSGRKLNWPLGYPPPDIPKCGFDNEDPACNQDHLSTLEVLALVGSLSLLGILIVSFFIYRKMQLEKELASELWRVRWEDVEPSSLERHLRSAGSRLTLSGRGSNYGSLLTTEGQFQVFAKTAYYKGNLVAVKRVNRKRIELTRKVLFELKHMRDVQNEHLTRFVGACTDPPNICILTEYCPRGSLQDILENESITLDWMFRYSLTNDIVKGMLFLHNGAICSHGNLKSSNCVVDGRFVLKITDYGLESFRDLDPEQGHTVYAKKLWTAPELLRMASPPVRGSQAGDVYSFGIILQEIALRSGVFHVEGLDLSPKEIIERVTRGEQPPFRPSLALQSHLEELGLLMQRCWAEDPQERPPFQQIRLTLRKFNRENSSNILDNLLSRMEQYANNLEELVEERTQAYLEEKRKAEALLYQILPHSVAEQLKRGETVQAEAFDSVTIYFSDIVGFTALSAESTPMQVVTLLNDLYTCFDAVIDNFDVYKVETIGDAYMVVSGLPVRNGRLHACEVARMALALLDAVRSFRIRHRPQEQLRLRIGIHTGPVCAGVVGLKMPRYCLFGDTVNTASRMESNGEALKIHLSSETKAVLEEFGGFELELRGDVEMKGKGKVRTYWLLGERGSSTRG

Row | Binder | EC50 on NPR-A (nM), whole cell cGMP assay | % efficacy versus CDNP on NPR-A, membrane cGMP assay | EC50 ratio versus CDNP on NPR-A, membrane cGMP assay
2 | SLRRSSCFGGRMDRIGAQSGLGCNSFRY [atrial natriuretic peptide (ANP)] | 1.4 nM |  | 
3 | GLSKGCFGLKLDRIGSMSGLGCPSSRAPRPNAPSTSA (ends and bridges not checked; cysteine pairing not given here) [CDNP-S3A5] |  | 36% | 1.33
4 | GLSKGCFGLKLDRIGSMSGLGCPSLRAPRPNAPSTSA (ends and bridges not checked; cysteine pairing not given here) [CDNP-A5] |  | 114% | 1.33
5 | GLSKGCFGLKLDRIGSMSGLGCPSLAAPRPNAPSTSA (ends and bridges not checked; cysteine pairing not given here) [CDNP-A4A5] |  | 49% | 0.48
6 | GLSKGCFGLKLDRIGSMSGLGCPSLADPRPNAPSTSA (ends and bridges not checked; cysteine pairing not given here) [CDNP-A4] |  | 90% | 41.1

These binders were tested against purified neutral endopeptidase (NEP) (UniProt P08473) (assay: cell-based or functional assay).
Chain of purified neutral endopeptidase (NEP) (P08473 52-750 limits assumed): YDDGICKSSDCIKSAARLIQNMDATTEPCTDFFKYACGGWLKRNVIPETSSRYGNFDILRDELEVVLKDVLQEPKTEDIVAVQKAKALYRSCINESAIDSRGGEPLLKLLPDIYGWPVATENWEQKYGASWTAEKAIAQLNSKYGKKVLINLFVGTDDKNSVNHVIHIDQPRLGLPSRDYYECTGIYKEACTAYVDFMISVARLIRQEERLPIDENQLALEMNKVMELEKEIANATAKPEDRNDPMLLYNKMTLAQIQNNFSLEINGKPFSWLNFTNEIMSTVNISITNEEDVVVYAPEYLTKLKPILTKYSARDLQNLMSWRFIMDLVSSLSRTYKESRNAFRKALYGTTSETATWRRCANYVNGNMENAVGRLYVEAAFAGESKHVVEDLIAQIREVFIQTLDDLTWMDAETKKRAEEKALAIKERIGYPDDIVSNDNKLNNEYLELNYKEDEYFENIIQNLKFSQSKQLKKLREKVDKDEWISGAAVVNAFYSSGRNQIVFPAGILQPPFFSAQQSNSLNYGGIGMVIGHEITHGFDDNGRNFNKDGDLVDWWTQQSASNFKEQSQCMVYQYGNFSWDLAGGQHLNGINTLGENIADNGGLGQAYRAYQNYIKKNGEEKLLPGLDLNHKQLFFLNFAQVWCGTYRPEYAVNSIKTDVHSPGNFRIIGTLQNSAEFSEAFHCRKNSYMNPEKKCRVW

Row | Binder | % of control after 240 min (intact peptide by RP-HPLC after incubation with NEP) | reduction of ability to generate cGMP (NPRB cells) after 30 min with purified NEP | reduction of ability to generate cGMP (NPRB cells) after 120 min with purified NEP
7 | EEEEEEHKLRGQEHPNARKYKGANKKGLSKGCFGLKLDRIGSMSGLGC [KB1(E6)] | 107% |  | 
8 | EEEEEEHGPQGQEHPNARKYKGANKKGLSKGCFGLKLDRIGSMSGLGC [KA1(E6)] | 108% |  | 
9 | GLSKGCFGLKLDRIGSMSGLGC [human CNP22] | 0% | 50% | 87%
10 | EEEEEESGGGGSGGGGSGGGGGLSKGCFGLKLDRIGSMSGLGC [C1(E6) [BC1]] | 99% |  | 
11 | DDDDDDGGGGSGGGGSGGGGGLSKGCFGLKLDRIGSMSGLGC [D6-14AAlinker-CNP [C3]] | 101% |  | 

Each binder was assayed against human natriuretic peptide receptor B (NPR-B) (human) (UniProt P20594) (assay: cell-based or functional assay).
Chain of human natriuretic peptide receptor B (NPR-B) (human) (P20594 23-1047): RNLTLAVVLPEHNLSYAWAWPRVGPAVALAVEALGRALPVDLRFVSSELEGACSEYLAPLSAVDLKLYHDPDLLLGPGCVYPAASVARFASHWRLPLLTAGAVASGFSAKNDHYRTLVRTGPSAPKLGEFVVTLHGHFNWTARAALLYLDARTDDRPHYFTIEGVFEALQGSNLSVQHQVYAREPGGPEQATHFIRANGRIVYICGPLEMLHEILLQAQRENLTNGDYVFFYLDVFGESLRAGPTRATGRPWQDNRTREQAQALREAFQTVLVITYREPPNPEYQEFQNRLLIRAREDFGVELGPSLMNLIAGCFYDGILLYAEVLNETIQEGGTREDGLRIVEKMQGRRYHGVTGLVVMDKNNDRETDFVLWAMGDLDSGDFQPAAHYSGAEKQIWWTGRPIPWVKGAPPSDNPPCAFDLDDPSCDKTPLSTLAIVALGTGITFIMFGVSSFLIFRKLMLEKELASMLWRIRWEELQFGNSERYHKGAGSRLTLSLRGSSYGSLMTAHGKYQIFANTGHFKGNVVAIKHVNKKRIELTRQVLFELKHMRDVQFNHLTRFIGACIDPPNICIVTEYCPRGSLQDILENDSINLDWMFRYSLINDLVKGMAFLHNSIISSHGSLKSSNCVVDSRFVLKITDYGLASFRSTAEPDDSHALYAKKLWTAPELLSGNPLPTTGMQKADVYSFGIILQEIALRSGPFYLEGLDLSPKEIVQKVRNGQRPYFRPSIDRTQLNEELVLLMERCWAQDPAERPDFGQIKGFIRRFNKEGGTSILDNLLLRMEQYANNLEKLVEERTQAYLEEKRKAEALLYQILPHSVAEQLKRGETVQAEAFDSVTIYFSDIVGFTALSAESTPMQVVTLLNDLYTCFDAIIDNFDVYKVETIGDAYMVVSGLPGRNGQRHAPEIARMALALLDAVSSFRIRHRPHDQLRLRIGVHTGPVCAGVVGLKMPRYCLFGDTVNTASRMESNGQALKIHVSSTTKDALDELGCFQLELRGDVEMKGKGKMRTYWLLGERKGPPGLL

Row | Binder | % Efficacy | EC50 (nM), NPR-B whole cell cGMP assay | EC50 Ratio versus CNP22 | Rescue Ratio Average | EC50 on NPR-B (nM), whole cell cGMP assay | Rescue Ratio versus CNP22 | % efficacy versus CDNP on NPR-B, membrane cGMP assay | % loss in efficacy versus CDNP (NPR-B selective efficacy gain) | Approximate fold gain in selectivity versus CDNP (NPR-B over NPR-A) | Approximate fold selectivity NPR-B versus NPR-A
12 | EEEEEEHKLRGQEHPNARKYKGANKKGLSKGCFGLKLDRIGSMSGLGC [KB1(E6)] | 109% | 84.5 nM | 5.75 | 5.6 |  |  |  |  |  | 
13 | EEEEEEHGPQGQEHPNARKYKGANKKGLSKGCFGLKLDRIGSMSGLGC [KA1(E6)] | 108% | 144 nM | 9.79 | 8.2 |  |  |  |  |  | 
14 | GLSKGCFGLKLDRIGSMSGLGC [human CNP22] | 100% | 14.7 nM | 1 | 1 | 4.87 nM | 1 |  |  |  | 
15 | EEEEEESGGGGSGGGGSGGGGGLSKGCFGLKLDRIGSMSGLGC [C1(E6) [BC1]] | 97% | 1740 nM | 118 | 122 |  |  |  |  |  | 
16 | GLSKGCFGLKLDRIGSMSGLGCPSSRAPRPNAPSTSA (ends and bridges not checked; cysteine pairing not given here) [CDNP-S3A5] |  |  |  |  |  |  | 118% | 82% | 1.23 fold | 3.59 fold
17 | GLSKGCFGLKLDRIGSMSGLGCPSLRAPRPNAPSTSA (ends and bridges not checked; cysteine pairing not given here) [CDNP-A5] |  |  |  |  |  |  | 87% | -27% | 5.54 fold | 16.2 fold
18 | GLSKGCFGLKLDRIGSMSGLGCPSLAAPRPNAPSTSA (ends and bridges not checked; cysteine pairing not given here) [CDNP-A4A5] |  |  |  |  |  |  | 85% | 36% | 0.98 fold | 2.86 fold
19 | GLSKGCFGLKLDRIGSMSGLGCPSLADPRPNAPSTSA (ends and bridges not checked; cysteine pairing not given here) [CDNP-A4] |  |  |  |  |  |  | 92% | 2% | 17.8 fold | 52 fold

Same assay, conditions: not given

Row | Binder | EC50 ratio versus CDNP on NPR-B, membrane cGMP assay
20 | GLSKGCFGLKLDRIGSMSGLGCPSSRAPRPNAPSTSA (ends and bridges not checked; cysteine pairing not given here) [CDNP-S3A5] | 1.08
21 | GLSKGCFGLKLDRIGSMSGLGCPSLRAPRPNAPSTSA (ends and bridges not checked; cysteine pairing not given here) [CDNP-A5] | 0.24
22 | GLSKGCFGLKLDRIGSMSGLGCPSLAAPRPNAPSTSA (ends and bridges not checked; cysteine pairing not given here) [CDNP-A4A5] | 0.49
23 | GLSKGCFGLKLDRIGSMSGLGCPSLADPRPNAPSTSA (ends and bridges not checked; cysteine pairing not given here) [CDNP-A4] | 2.31
